Measurements as given in patent US20090202556A1 (Kyowa Kirin, published 2009).

T1: CLDN3-myc/His (fusion protein in which myc/His was added to the C-terminal of human CLDN3), expressed in CHO … (human, UniProt O15551 1-220)
T1 construct: also called CLDN3-myc/His gene-introduced CHO cell; not shown: C-terminal myc/His tag
T1 sequence: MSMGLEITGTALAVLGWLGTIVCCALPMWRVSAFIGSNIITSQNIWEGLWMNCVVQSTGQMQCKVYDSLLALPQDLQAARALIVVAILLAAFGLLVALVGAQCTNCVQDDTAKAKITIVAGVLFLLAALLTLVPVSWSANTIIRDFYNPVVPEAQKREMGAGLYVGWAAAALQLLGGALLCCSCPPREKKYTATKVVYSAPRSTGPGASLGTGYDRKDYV

T2: CLDN4-myc/His (fusion protein in which myc/His was added to the C-terminal of human CLDN4), expressed in CHO … (human, UniProt O14493 1-209)
T2 construct: On live cells in FCM; as cell extract in Western blotting (denatured) and immunoprecipitation (Triton X-100 lysate); also called CLDN4-myc/His gene-introduced CHO cell
T2 sequence: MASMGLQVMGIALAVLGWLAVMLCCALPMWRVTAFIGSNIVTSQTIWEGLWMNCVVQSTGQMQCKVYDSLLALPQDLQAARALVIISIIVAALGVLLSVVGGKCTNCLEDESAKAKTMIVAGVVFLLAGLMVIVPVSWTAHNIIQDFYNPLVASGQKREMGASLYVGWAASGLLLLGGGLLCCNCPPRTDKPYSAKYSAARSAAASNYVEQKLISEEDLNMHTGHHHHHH

T3: CLDN5-myc/His (fusion protein in which myc/His was added to the C-terminal of human CLDN5), expressed in CHO … (human, UniProt O00501 1-218)
T3 sequence: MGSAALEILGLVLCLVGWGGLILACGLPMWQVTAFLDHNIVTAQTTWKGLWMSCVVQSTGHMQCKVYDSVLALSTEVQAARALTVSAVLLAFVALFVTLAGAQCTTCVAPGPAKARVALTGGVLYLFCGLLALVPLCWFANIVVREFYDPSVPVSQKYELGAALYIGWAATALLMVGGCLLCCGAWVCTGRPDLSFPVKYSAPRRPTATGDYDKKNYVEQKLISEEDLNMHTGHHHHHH

T4: CLDN6-myc/His (fusion protein in which myc/His was added to the C-terminal of human CLDN6), expressed in CHO … (human, UniProt P56747 1-220)
T4 chain: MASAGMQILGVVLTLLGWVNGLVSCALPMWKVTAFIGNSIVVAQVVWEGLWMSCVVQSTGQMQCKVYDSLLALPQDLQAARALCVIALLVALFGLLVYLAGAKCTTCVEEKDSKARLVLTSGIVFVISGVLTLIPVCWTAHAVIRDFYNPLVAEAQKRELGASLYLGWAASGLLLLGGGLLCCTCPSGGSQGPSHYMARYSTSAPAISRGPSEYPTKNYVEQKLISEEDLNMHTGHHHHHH

T5: CLDN9-myc/His (fusion protein in which myc/His was added to the C-terminal of human CLDN9), expressed in CHO … (human, UniProt O95484 1-217)
T5 sequence: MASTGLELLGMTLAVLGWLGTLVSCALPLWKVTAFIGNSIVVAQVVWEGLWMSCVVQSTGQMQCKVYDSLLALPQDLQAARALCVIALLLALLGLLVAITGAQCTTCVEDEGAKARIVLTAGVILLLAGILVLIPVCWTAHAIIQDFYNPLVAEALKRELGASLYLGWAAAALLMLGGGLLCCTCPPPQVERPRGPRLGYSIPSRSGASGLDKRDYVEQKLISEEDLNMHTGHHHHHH

T6: 4-EL1/6-EL2 (CLDN4-CLDN6 fusion protein: EL1 of CLDN4, EL2 of CLDN6, myc/His at the C-terminal side), … (human)
T6 chain: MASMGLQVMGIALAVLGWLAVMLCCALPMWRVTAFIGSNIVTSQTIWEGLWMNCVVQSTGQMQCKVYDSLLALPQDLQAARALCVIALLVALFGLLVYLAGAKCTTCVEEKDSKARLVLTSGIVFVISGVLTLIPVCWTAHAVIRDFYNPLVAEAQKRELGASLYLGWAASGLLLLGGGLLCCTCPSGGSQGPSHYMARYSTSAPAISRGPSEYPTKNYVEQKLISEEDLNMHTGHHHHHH

T7: 6-EL1/4-EL2 (CLDN4-CLDN6 fusion protein: EL1 of CLDN6, EL2 of CLDN4, myc/His at the C-terminal side), … (human)
T7 chain: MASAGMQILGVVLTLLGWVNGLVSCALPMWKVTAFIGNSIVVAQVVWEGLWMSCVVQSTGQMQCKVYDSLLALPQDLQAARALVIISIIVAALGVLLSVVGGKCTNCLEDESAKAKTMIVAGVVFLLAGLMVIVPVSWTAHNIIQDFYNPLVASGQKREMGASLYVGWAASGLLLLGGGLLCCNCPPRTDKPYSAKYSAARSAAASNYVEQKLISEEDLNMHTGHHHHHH


Tests used:
[1] = target: T1, CLDN3-myc/His (fusion protein in which …); assay: FCM on live CLDN3/CHO cells
Method: (§1) Each of CLDN3/CHO, CLDN4/CHO, CLDN5/CHO, CLDN6/CHO and CLDN9/CHO was cultured for 3 to 4 days and peeled off using 0.02% EDTA solution (manufactured by Nacalai Tesque), and the recovered cells were washed with PBS and, in order to avoid nonspecific adsorption of antibodies, blocked at ice temperature for 30 minutes. The cells were dispensed at 1 to 5×10⁵ cells/100 μl BSA-PBS into a 96-well U bottom plate and centrifuged (1,500 rpm, 5 minutes), the supernatant was removed and then a mouse anti-serum to be immunized, a culture supernatant of hybridoma KM3900 (8.6 μg/ml), anti-CLDN4 monoclonal antibodies KM3900 and KM3907 diluted to 5 μg/ml and a mouse IgG2a isotype control (manufactured by DAKO) were dispensed as the primary antibodies at 100 μl/well and allowed to react at ice temperature for 60 minutes. After the reaction and then washing with BSA-PBS once, FITC-labeled anti-mouse immunoglobulin G (H+L) (manufactured by DAKO) diluted 50-fold with BSA-PBS was added thereto as the secondary antibody at 100 μl/well and allowed to react at ice temperature for 30 minutes under shading. After washing again once with BSA-PBS and subsequently suspending in PBS, the fluorescent intensity was measured by FCM (manufactured by Beckman Coulter).

[2] = target: T2, CLDN4-myc/His (fusion protein in which …); assay: FCM on live CLDN4/CHO cells
Method: as §1

[3] = target: T3, CLDN5-myc/His (fusion protein in which …); assay: FCM on live CLDN5/CHO cells
Method: as §1

[4] = target: T4, CLDN6-myc/His (fusion protein in which …); assay: FCM on live CLDN6/CHO cells
Method: as §1

[5] = target: T5, CLDN9-myc/His (fusion protein in which …); assay: FCM on live CLDN9/CHO cells
Method: as §1

[6] = target: T6, 4-EL1/6-EL2 (CLDN4-CLDN6 fusion …); assay: FCM on live 4-EL1/6-EL2/CHO cells
[7] = target: T7, 6-EL1/4-EL2 (CLDN4-CLDN6 fusion …); assay: FCM on live 6-EL1/4-EL2/CHO cells

| Binder | binding result [1] | binding result [2] | binding result [3] | binding result [4] | binding result [5] | binding result [6] | binding result [7] |
| --- | --- | --- | --- | --- | --- | --- | --- |
| anti-CLDN4 monoclonal antibody KM3900 produced by hybridoma KM3900 (FERM BP-10751) (antibody, V domains shown, Used as hybridoma culture supernatant (8.6 µg/ml) or purified antibody (5 µg/ml); also called anti-CLDN4 mouse antibody KM3900) VH: EVQLQQSGPELVKPGASVKISCKASGYTFTDYYMNWVKQSHGKSLEWIGDVVPNNGVPTYNQKFKGKATLTVDKSSSTAYMELRSLTSEDSAVYYCARPHYYYAGRSGAMDYWGQGTSVTVSS VL: QIVLTQSPAIMSASLGERVTMTCTASSTVSSTYLHWYQQKPGSSPKLWIYSTSNLASGVPARFSGSGSGTSYSLTISSMEAEDAATYYCHQYHRSPPTFGGGTKLEIK | no binding (tested: 5 µg/ml) | binds | no binding (tested: 5 µg/ml) | no binding (tested: 5 µg/ml) | no binding (tested: 5 µg/ml) | no binding | binds |
| anti-CLDN4 monoclonal antibody KM3907 produced by hybridoma KM3907 (FERM BP-10885) (antibody, mouse IgG2a, V domains shown) VH: QVQLQQSGPELVKPGASVKISCKASGYAISTSWMNWVKQRPGKGLEWIGRINPGDGNTNYNGKFMAKATLTADKPSSTAYMQLSSLTSEDSAVYFCTRGDRWSGAMDYWGQGTSVTVSS VL: GNVLTQSPAIMSASPGEKVTMTCRASSSVSSSYLHWYQQKSGASPKLWIYSTSNLASGVPVRFSGSGSGTSYSLTISSVEAEDAATYYCQQYSGFPLTFGAGTKLELK | binds | binds | no binding (tested: 5 µg/ml) | no binding (tested: 5 µg/ml) | no binding (tested: 5 µg/ml) | binds | no binding |
